In paper PMC8677862, “Substrate binding modes of purine and pyrimidine nucleotides to human ecto-5′-nucleotidase (CD73) and inhibition by their bisphosphonic acid derivatives” (Purinergic Signalling, 2021):

Substrate: Nc1ncnc2c1ncn2[C@@H]1O[C@H](COP(=O)(O)O)[C@@H](O)[C@H]1O
Test: purified protein, by the assay type
Format: biochemical, human
Details: other: AMP 5-200 μM, 1.25 ng CD73; pH 7.5; 25.0 °C
Procedure: In this study, enzyme activity and inhibition data was characterised using a modified malachite green assay. Each assay consisted of reaction buffer A (50 mM Tris–HCl pH 7.5, 100 mM NaCl, 1 mM MgCl2) to which the appropriate substrate and/or inhibitors (see Table S1) were added. Dissolved compounds were immediately used for the inhibition assays. The reactions were generally initiated by the addition of protein. The protein concentrations, substrates and inhibitors used for the various experiments are detailed below. In all experiments, reactions were monitored over a 10-min period during which samples were taken at regular intervals. At each desired time point, a malachite green/molybdate (1:1) solution was added to the sample, which simultaneously terminated the assay and also allowed the detection of the produced phosphate ions. These reaction mixtures were incubated at 25 °C for 25 min, followed by measurement of the absorbance at 620 nm. […]
The specific activity (μmol Pi/min/mg protein) was calculated from the initial reaction rates and was used to determine when the protein refolding process had reached completion. […] Kinetic values were determined by fitting the Michaelis–Menten equation to the initial reaction rates using GraphPad Prism (GraphPad Software, La Jolla, CA, USA). […]

B1: human CD73 (Homo sapiens; K145S/K147S/K478S/N311D/N333D/N403D/N53D/T376A) (protein)
chain: WELTILHTNDVHSRLEQTSEDSSKCVDASRCMGGVARLFTKVQQIRRAEPNVLLLDAGDQYQGTIWFTVYKGAEVAHFMNALRYDAMALGNHEFDNGVEGLIEPLLKEAKFPILSANISASGPLASQISGLYLPYKVLPVGDEVVGIVGYTSKETPFLSNPGTNLVFEDEITALQPEVDKLKTLNVNKIIALGHSGFEMDKLIAQKVRGVDVVVGGHSNTFLYTGNPPSKEVPAGKYPFIVTSDDGRKVPVVQAYAFGKYLGYLKIEFDERGNVISSHGNPILLDSSIPEDPSIKADINKWRIKLDDYSTQELGKTIVYLDGSSQSCRFRECNMGNLICDAMINNNLRHADEMFWNHVSMCILNGGGIRSPIDERNDGTITWENLAAVLPFGGTFDLVQLKGSTLKKAFEHSVHRYGQSTGEFLQVGGIHVVYDLSRKPGDRVVKLDVLCTSCRVPSYDPLKMDEVYKVILPNFLANGGDGFQMIKDELLRHDSGDQDINVVSTYISKMKVIYPAVEGRIKFS
notes: His6 (C); made in house
With B1 the Km was 10.5 µM and the Vmax was 301.2 U/mg.
